# Data published in US20220227830A1, “QD DOSING OF GIP RECEPTOR AGONIST PEPTIDE COMPOUNDS AND USES THEREOF” (Takeda Pharmaceutical Company Limited, priority 2020, published 2022).
# Starred links: 1 amine or outer side, 2 acyl side, 3 side chain; linkers in the order of their positions; H or OH if unused. Non-standard residues stand in square brackets, D forms with d. Groups on a side chain read outwards from the residue. No end group written: not given here. *: point of attachment. C16 diacid = O=C(O)CCCCCCCCCCCCCCC(=O)*; C15 diacid = O=C(O)CCCCCCCCCCCCCC(=O)*; γGlu = O=C(O)[C@H](CCC(=O)[*:2])N[*:1]; AEEA = NCCOCCOCC(=O)O; Aib = CC(C)(N)C(=O)O; C16 = lipid C16
# T1: full-length human GIPR with an N-terminal FLAG tag, overexpressed on HEK-293T cells (human, UniProt P48546 22-466)
# T1 sequence (looked up): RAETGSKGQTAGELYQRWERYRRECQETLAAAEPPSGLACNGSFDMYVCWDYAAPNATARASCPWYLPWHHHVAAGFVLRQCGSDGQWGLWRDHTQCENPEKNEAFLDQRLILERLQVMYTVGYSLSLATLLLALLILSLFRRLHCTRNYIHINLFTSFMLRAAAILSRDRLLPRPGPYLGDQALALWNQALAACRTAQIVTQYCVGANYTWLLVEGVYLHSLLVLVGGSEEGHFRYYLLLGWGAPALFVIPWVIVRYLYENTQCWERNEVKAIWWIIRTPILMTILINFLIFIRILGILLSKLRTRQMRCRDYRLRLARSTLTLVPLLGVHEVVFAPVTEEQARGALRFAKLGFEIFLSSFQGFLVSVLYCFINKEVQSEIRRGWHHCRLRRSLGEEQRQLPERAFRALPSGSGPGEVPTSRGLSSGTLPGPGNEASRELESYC
# How the values were obtained:
# [1] = molecular target: T1, full-length human GIPR with an …; test: cell-based or functional assay
# [2] = molecular target: full-length human GLP-1R with an N-terminal FLAG tag, overexpressed on HEK-293T cells (human, UniProt P43220 24-463); test: cell-based or functional assay
Binder,"Human GIPR cAMP, HEK293T EC50 [1] [nM]",Human GLP1R cAMP HEK293T EC50 [2] [nM]
Me-Y[Aib]EGTFISDYSI[Aib]LDR[Aib]AQ[Aib]K([2OEG-γGlu-γGlu-C15 diacid])FVNWLLAQRG-OH [Compound 207],0.0004,–
Me-Y[Aib]EGTFISDYSIAK([AEEA-AEEA-γGlu-C16 diacid])DRIAQ[Aib]NFVNWLLAQK [Compound 196],0.0002,692
"YXEGTFISDYSIAXDRXAQXDFVNWLLAQSPSSG (N-terminal Me (Me-Tyr1); Aib at 2, 17, 20; Km = Lys(R) at 14, linker printed GS (read as G5 = GGGGG), lipid C15DA (C15 diacid); C-terminal OH) [Compound 158]",0.0002,245
"Me-Y[Aib]EGTFISDYSIAKDR[Aib]AQ[Aib]DFVNWLLAQRG-OH (not fully specified (residues 1, 14)) [Compound 173]",0.0005,> 1000
Me-Y[Aib]EGTFISDYSIALDR[Aib]K([AEEA-AEEA-γGlu-γGlu-C15 diacid])Q[Aib]DFVNWLLAQSG-OH [Compound 163],0.0003,> 1000
Me-Y[Aib]EGTFISDYSIALDR[Aib]HQ[Aib]NFVNWK([γGlu-C16])LAQR-NH2 [Compound 190],0.0158,1000
"YXEGTFISDYSIAXDRXAQXDFVNWLLAQSPG (N-terminal Me (Me-Tyr1); Aib at 2, 17, 20; Km = Lys(R) at 14, linker printed GS (read as G5 = GGGGG), lipid C15DA (C15 diacid); C-terminal OH) [Compound 159]",0.0002,145
"YXEGTFISDYSIXXDRXAQXDFVNWLLAQSPG (N-terminal Me (Me-Tyr1); Aib at 2, 13, 17, 20; Km = Lys(R) at 14, linker printed GS (read as G5 = GGGGG), lipid C15DA (C15 diacid); C-terminal OH) [Compound 182]",0.0002,155
"YXEGTFISDYSIXLDRXAQXDFVNWLLAQSPG (N-terminal Me (Me-Tyr1); Aib at 2, 13, 20; Km = Lys(R) at 17, linker printed GS (read as G5 = GGGGG), lipid C15DA (C15 diacid); C-terminal OH) [Compound 186]",0.0003,26.9
YGEGTFISDYSIAK([AEEA-AEEA-γGlu-C16 diacid])DRIHQQNFVNWLLAQK [Compound 192],0.148,741
"YXEGTFISDYSIAXDRXAQXNFVNWLLAQSG (N-terminal Me (Me-Tyr1); Aib at 2, 17, 20; Km = Lys(R) at 14, linker printed GS (read as G5 = GGGGG), lipid C15DA (C15 diacid); C-terminal OH) [Compound 160]",0.0003,24
"YXEGTFISDYSIALDRXAQXDFVNWLLAQSG (N-terminal Me (Me-Tyr1); Aib at 2, 20; Km = Lys(R) at 17, linker printed GS (read as G5 = GGGGG), lipid C15DA (C15 diacid); C-terminal OH) [Compound 168]",0.0003,17.4
"YXEGTFISDYSIAXDSXAQXDFVNWLLAQKG (N-terminal Me (Me-Tyr1); Aib at 2, 17, 20; Km = Lys(R) at 14, linker printed GS (read as G5 = GGGGG), lipid C15DA (C15 diacid); C-terminal OH) [Compound 177]",0.0002,1000
"YXEGTFISDYSIAXDRXAQXDFVNWLLAQSG (N-terminal Me (Me-Tyr1); Aib at 2, 17, 20; Km = Lys(R) at 14, linker printed GS (read as G5 = GGGGG), lipid C15DA (C15 diacid); C-terminal OH) [Compound 172]",0.0004,64.6
"YXEGTFISDYSIAXDRXAQXDFVNWLLAQXG (N-terminal Me (Me-Tyr1); Aib at 2, 17, 20; Km = Lys(R) at 14, linker printed GS (read as G5 = GGGGG), lipid C15DA (C15 diacid); K(Ac) (N-epsilon-acetyllysine) at 30; C-terminal OH) [Compound 181]",0.0004,162
"Me-Y[Aib]EGTFISDYSI[Aib]LDR[Aib]KQ[Aib]DFVNWLLAQSPG-OH (not fully specified (residues 1, 18); printed as Me-Tyr-Aib-Glu-Gly-Thr-Phe-Ile-Ser-Asp-Tyr-Ser-Ile-Aib-Leu-Asp-Arg-Aib-Lys(R)-Gln-Aib-Asp-Phe-Val-Asn-Trp-Leu-Leu-Ala-Gln-Ser-Pro-Gly-OH) [Compound 185]",0.0004,> 1000
"Me-Y[Aib]EGTFISDYSIALDR[Aib]AQ[Aib]KFVNWLLAQKG-OH (not fully specified (residues 1, 21)) [Compound 204]",0.0008,–
Y[Aib]EGTFISDYSIALDR[Aib]AQ[Aib]K([AEEA-AEEA-γGlu-γGlu-C15 diacid])FVNWLLAQKG-OH (not fully specified (residue 1)) [Compound 188],0.0003,22.9
Me-Y[Aib]EGTFISDYSIALDR[Aib]AQ[Aib]K([AEEA-AEEA-γGlu-γGlu-C15 diacid])FVNWLLAQSPG-OH [Compound 184],0.0003,> 1000

Binder,"Human GIPR cAMP, HEK293T EC50 [1] [nM]",Human GLP1R cAMP HEK293T EC50 [2] [nM]
"Me-Y[Aib]EGTFISDYSIALDR[Aib]KQ[Aib]DFVNWLLAQRG-OH (not fully specified (residues 1, 18)) [Compound 169]",0.0006,> 1000
"Me-Y[Aib]EGTFISDYSI[Aib]LDR[Aib]AQ[Aib]KFVNWLLAQRG-OH (not fully specified (residues 1, 21)) [Compound 208]",0.0003,–
"YXEGTFISDYSIALDRXAQXNFVNWLLAQSPSSGAPPPS (N-terminal Me (Me-Tyr1); Aib at 2, 20; Km = Lys(R) at 17, linker printed GS (read as G5 = GGGGG), lipid C15DA (C15 diacid); C-terminal NH2) [Compound 164]",0.0002,9.77
"YXEGTFISDYSIXXDRXAQXNFVNWLLAQSPSSGAPPPS (N-terminal Me (Me-Tyr1); Aib at 2, 13, 17, 20; Km = Lys(R) at 14, linker printed GS (read as G5 = GGGGG), lipid C15DA (C15 diacid); C-terminal OH) [Compound 187]",0.0002,51.3
"YXEGTFISDYSIALDRXAQXDFVNWLLAQSPSSGAPPPS (N-terminal Me (Me-Tyr1); Aib at 2, 20; Km = Lys(R) at 17, linker printed GS (read as G5 = GGGGG), lipid C15DA (C15 diacid); C-terminal OH) [Compound 166]",0.0004,89.1
"YXEGTFISDYSIALDRXAQXDFVNWLLAQSPSSGAPPPS (N-terminal Me (Me-Tyr1); Aib at 2, 20; Km = Lys(R) at 17, linker printed GS (read as G5 = GGGGG), lipid C15DA (C15 diacid); C-terminal NH2) [Compound 167]",0.0004,41.7
"YXEGTFISDYSIALDRXAQXDFVNWLLAQRPSSGAPPPS (N-terminal Me (Me-Tyr1); Aib at 2, 20; Km = Lys(R) at 17, linker printed GS (read as G5 = GGGGG), lipid C15DA (C15 diacid); C-terminal OH) [Compound 165]",0.0004,85.1
"YXEGTFISDYSIAXDRXAQXDFVNWLLAQSPSSGAPG (N-terminal Me (Me-Tyr1); Aib at 2, 17, 20; Km = Lys(R) at 14, linker printed GS (read as G5 = GGGGG), lipid C15DA (C15 diacid); C-terminal OH) [Compound 157]",0.0001,347
Me-Y[Aib]EGTFISDYSIALDR[Aib]K([AEEA-AEEA-γGlu-γGlu-C15 diacid])Q[Aib]DFVNWLLAQRG-OH [Compound 162],0.0002,513
Me-Y[Aib]EGTFISDYSI[Aib]LDR[Aib]AQ[Aib]K([AEEA-AEEA-γGlu-γGlu-C15 diacid])FVNWLLAQKG-OH [Compound 175],0.0004,44.7
"Me-Y[Aib]EGTFISDYSIALDR[Aib]AQ[Aib]KFVNWLLAQKG-OH (not fully specified (residues 1, 21)) [Compound 214]",0.0003,–
Me-Y[Aib]EGTFISDYSIALDR[Aib]K([AEEA-AEEA-γGlu-γGlu-C15 diacid])Q[Aib]NFVNWLLAQSG-OH [Compound 161],0.0003,> 1000
Me-Y[Aib]EGTFISDYSIALDR[Aib]AQ[Aib]K([2OEG-γGlu-γGlu-γGlu-C15 diacid])FVNWLLAQKG-OH [Compound 201],0.0002,9.12
"Me-Y[Aib]EGTFISDYSIALDR[Aib]KQ[Aib]DFVNWLLAQSG-OH (not fully specified (residues 1, 18)) [Compound 170]",0.0004,> 1000
Me-Y[Aib]EGTFISDYSIALDR[Aib]K([AEEA-AEEA-γGlu-γGlu-C15 diacid])Q[Aib]NFVNWLLAQRG-OH [Compound 171],0.0005,> 1000
Me-Y[Aib]EGTFISDYSI[Aib]LDR[Aib]AQ[Aib]K([AEEA-AEEA-γGlu-γGlu-C15 diacid])FVNWLLAQSPG-OH [Compound 183],0.0005,89.1
"YXEGTFTSDYSIYLDKQAAXEFVNWLLAGGPSSGAPPPSX (not fully specified; no N-terminal group printed; Aib at 2, 20; Km = Lys(R) at 40, linker not given, lipid C16; C-terminal NH2) [Compound 191]",0.0049,–
Me-Y[Aib]EGTFISDYSIAK([Gly-Gly-Gly-Gly-γGlu-C15 diacid])DR[Aib]AQ[Aib]DFVNWLLAQKG-OH [Compound 180],0.0003,> 1000
